From the nanobody polyreactivity screen of Harvey et al. (2022)

Assay: yeast display, Sf9 membrane polyspecificity reagent, FACS + sequencing; frameworks hold sequencing errors
Outline: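 A synthetic nanobody library was expressed on Saccharomyces cerevisiae BJ5465 by galactose induction for 36–48 hours. The library was stained for 1 hour at 4 °C with 10% biotinylated, detergent-solubilized Sf9 membrane reagent and enriched with streptavidin microbeads before FACS. Low and high (top ~1%) gates were set on anti-HA fluorescence for expression and streptavidin fluorescence for reagent binding, and each polyreactivity label reflects the gate of origin.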

Sequence	polyreactivity (PSR sort gate)
QVQLVESGGGLVQAGGSLRLSGAASGIIVPDYAMGWNKQAPGKERELVPDISFSAGSTYYADSVKGRFTISRDNAKNTVYLQMNSLKPDDTAVYVCAADQTSSYYDPWGDYWGQGTQVTVSS	low polyreactivity
QVQLVESGGGLLQAGGSLRLSCAASGSTFYKYAMGWYRHAPRKERELVASISRSGRSTYYADSVKGRFTISRDNAKNTVYLQMNSLKPEDTAVYYCAATWRQHPGSMGYWGQGTQVTVSS	high polyreactivity
QVQLVESGGGLVQAGGSLRLSCAASGITFAQYAMGWYRQAPGTERELVAGITRSGGSTHYADSVKGRFTISRDNAKNTVYLQMNSLKPEDTAVYYCNARYPYRGKRKPSDYWGQGTQVTVSS	high polyreactivity
QVQLVESGGGLVQAGGSLRLSCAASGRTFVFNAMGWYRPAPGKERELVAAITKNGGSTYYADSVKGRFTISRDNAKNTVYLQMNSLKPEDTAVYYCAAQWWRLYWEYYYWGQGTQVTVSS	low polyreactivity
QVQLVESGGGLVQAGGSLRLSCAASGRIFYPNAMGWYRQAPGKERELVAAITWRGGRTYYADSVKGRFTISRDNAKNTVYLQMNSLKPEDTAVYYCNAVAPGKYNHWGQGTQVTVSS	high polyreactivity
QVQLVESGGGLVQAGGSLRLTCAASASIFGHNTMGWNREAPGKERELVAAISVSGTRTYYADSVKGRFTISRVNAKNTVYLQMNSLKPEDTAVYYCAAEISRVRQGVAWSYKYEYWGQGTQVTVSS	high polyreactivity
QVQLVESVGGLVQAGGSLRLSCAASGFTFTPYGMGWYRQAPGKERELVAAITWNGGRTYYADSVKGRFTISRDNAKNTVYLQMNSLKPEDTAVYYCAAVAWSWQKRGYWGQGTQVTVSS	high polyreactivity
QVQLVESGGGLVQAGGSLRLSCDASGLIFYSNAMGWYRQAPGKERELVAAISSSGGSTYYADCVKGRFTISRDNAKNTVYLQMNSLKPEDTAVYFCAAAGDDYWGQGTQVTVSS	low polyreactivity
QVQLVESGGGLVQAGGSLRLSCAASGITFRSYAMGWYRQAPGKERELVATISWSGGITYYADSVKGRFTISRDNAKNTVYLQMNSLKPEDTAVYYCAKASQSWGRDDYYYWGQGTQVTVSS	low polyreactivity
QVQLVESGRGLVQAGGSLRLSCAASGSTFVANDMGWYSQAPGKERELVAAISWSDATTYYADSVKGRGTISRDNAKNTVYLQMNSRKPEDNAVYDCAATRDTNNMDYWGHGTQVTVSS	low polyreactivity
QVQLVESVGGLVQAGGSLRLSCAASGRTFAYYTMGWYRQAPGKERELVARISGYGGSTYYADSVKGRFTISRDNAKNTVYLQMNSLKPEDTAVYYCNVVGAYYRYDYWGQGTQVTVSS	high polyreactivity
QVQLVESGGGLVQAGRSLRLSCAASGSIISVYAMGLYRQAPGKERELVADITGTGDTYYADSVKGRFTISRDNAKNTVYLQMNSLIPEDTAVYYCNTVYELYYDPSVTEDYWGQGTQVTVSS	low polyreactivity
QVQLVESGGGLVQAGGSLRLSCAASGRIFYYYAMGWYRQAPGKERELVASINSVGTTTYADSVKGRFTISRDNAKNTVYLKMNSLKPEDTAVYYCARDTGCIYYDGYAYDYWGQGTEVTVSS	low polyreactivity
QVQLVESGGGLVQAGGSLRLSCAASGRTVGYYGMGWYRQAPGKERELVAAITGSGGSTYYADSVKGRFTISRDNAKNTVYLQMNSLKPEDTAVYYCAATYLSRWTLYDYWGQGTQVTVSS	high polyreactivity
QVQLVESGGGLVQAGGSLRLSCAASGSTFRSYTMGWYRQAPGKERELVATIDWSAGNTRYADSVKGRFTISRDNAKNTVYLQMNSLKPEDTAVYYCNKDAGLWVSGTLYYWGQGTQVTVSS	low polyreactivity
QVQLVESGGGLVQAGVSLRLSCASSGIIFPDYAMGWYRQAPGKERELVAAITRSGGRTFYADSVKGRFTISRDTAKNSVYLQMKSLKPEDTAVYYCAVSYSYLYYYWGQGTQVTVSS	high polyreactivity
QVQLVESGGRLVQAGGSLRLSCAASGLIFNDNAMGWYRQAPGKERELVAAISWGGGTTYYADSVKGRFSNSRDNAKYTVFLQMNSLKPEDTAVYYCAAEEAMFYDFYYVLLDYWGQGTQVTVSS	high polyreactivity
QVQLVESGGGLVQAGGSLRLSCAASGLTFTYYAMGWYRQAPGKERELVAAISWSGGSTYYADSVKGRFTISRDNAKNTVYLQMNSLKPEDTAVYYCAAATAYYRYRGGYDYWGQGTQVTVSS	high polyreactivity
QVQLVESGGGLVQAGGSLRLSCAASGSIYRYYAMGWYRQAPGKETELVAAIRVSTGSTSYADSVKGRFTISRDNAKNTVYLQMNSLKPEDTAFYYCNAGVGYFVGTYYGFLPYDYWGQGTQVTVSS	high polyreactivity
QVQLVESVGGLVQAGGSHRLSCAASGSTFYRYAMGWYRQAPGKERELVAAISRSGGTTYYADSVKGRFTISRDNAKNTVYLQMNSLKPDDTAVYYCNARGRYEYGYWGQGTEVTVSS	high polyreactivity
QVQLVESGGGLVQAGGSLRLSCAASGGTFYYNAMGWYRQAPGKERELVAAITSGDRTYYADSVKGRFTISRDIAKNTVYLQMNSLKPEDTAVSYCARAGKTRAGYDYWGQGTQVTVSS	high polyreactivity
QVQLVESGGGLVQAGGSLRLSCAASGIIFASNAMGWYIQAPGKERELVATINWTDSTTYYADSVKGRFTISRDNAKNNVYLLMNSLKPEDTAGYYCNAVPHWFYRYGRYDYWGQGTQVTVSS	low polyreactivity

Sequence	polyreactivity (PSR sort gate)
QVQLVESGGGLVQAGGSLRLSCAASGSTFKLYAMGWYRPAPGKERELVAAITRSGTRTYYADSVKGRFTISRDNAKNTVYLQMNSLKPEDTAVYYCAADGYRISGYDYWGQGTQVTVSS	high polyreactivity
QVQLVESGGGLVQAGRSLRLSCAASGITLYNYAMGWYRQAPGKERELVAAISLSGGRTYYADSVKGRFTISRDNAKNTVYLQMYSLKPEDTAVYYCAADWLNSDPYNYWGQGTQVTVSS	low polyreactivity
QVQIVESGGGLVQAGGSLPLSCADYGLIFPDYAMGCYRQAPGKEREFVASIWRGGTTYYADSVKGRFTISRDNAKNTFYFKINSLKPEDTAVYYCASRYFHRGLVFPFTKYDYWGLGTQVTVSS	high polyreactivity
QVQLVESGGGLVQAGGSLRLSCAASGSIFHPYAMGWYRQAPGKERELVAAISSSTGRTYYADSVKGRFTISRDNAKNTVYLQMNSLKPEDTAVYYCAARKKYSEFDYWGQGTQVTVSS	high polyreactivity
QVQLVESGGGLVQAGGSLRLICAASGLTFWVYTMGWYRQAPGKERELVARITSRGASTYYADSVKGRFTISRDNAKNTVYLQMNSLKPEDTAVYYCATDRYRIYPDYDYWGQGTQVTVSS	high polyreactivity
QVQLVESGGGLVQAGGSLRLSCAASGSIFRTNAMGWYREAPGKERELVAAITGRGGSTYYADSVKGRFTISRDYAKNTVYLQMNSLKPEDTAVYYCAAAYGTWKFLATTEDYWGQGTQVTVSS	high polyreactivity
QVQLVESRGGLVQAGGRLRLSCAASGIIFPRNAMGWYRQAPGKERELVAAITNTGSTKYADSVKGRFTISRDNEKNTVYLHMNSLKPEDTAVYFCAKELCSVPSPSLYDYWGQGTQVTVSS	low polyreactivity
QVHLVESGGGLVQAGGSIRLSCAASGFIFGSYAMGWYRPAPGKERELVAVISASGGGTYYADSVKGRFTISRDNAKYTVYLQMNSLKPEDTAVYYCAAKGVRGFAGYGYWGQGTQVTVSS	high polyreactivity
QVQLVESGGGLVQAGGSLRLSCAASGSIFESNAMGWYRQAPGKERELVADITYRGTRTYYADSVKGRFTISRDNAKNTVYLQMNSLKPEDTAVYYCAVWQDHYDWGQGTQVTVSS	low polyreactivity
QVQLVESGGGLVQAGGSLRLSCAASGSIFYRYAMGWYRQAPGKERELVAAISFRTGSTYYADSVKGRFTISRDNAKNTVYFQMNSLKPEDTAVYYCAAEQLSTLRQRFDSWGQGTQVTVSS	high polyreactivity
QVQLVESGGGLVQAGGSLRLSCAASGRTFIVNTMRWYRQAPGKDRELVAAITARGGRTYYADSEKGRFTISRDNAKNTVYLQLNSLKPEDTAVYYCNARTPPREAERYYWGQGTQVTVSS	low polyreactivity
QVQLVESGGGLVQAGGSLRLSCAASGRTFETNAMGWYRQAPGKERELVAAISRSGGRTYYADSVKGRFTISRDNAKNTVYLQMNSLKPEDTAVYYCAVRQATVTGGGYWGQGTQVTVSS	high polyreactivity
QVQLVESGGGLVQAGGSLRLSCAASGFTFRRYAMGWYRQAPGKERELVAAISASGGNTYYADSVKGRFTISRDNAKNTVYLQMNSLKPEDTAVYYCATDWTVRYDYWGQGTQVTVSS	high polyreactivity
QVQLVESGGGLFQAGGSLRLSCAASGITFTRYAMGWYRQAPGKEREFVAAIRRSGGNTYYADSVKGRFTISRDNAKNTVYLQMNSLNPEDTAVYYCAASLRKTSPTRLVDYWGQGTQVTVSS	low polyreactivity
QVQLVESGGGLVQAGGSLRLSCAASGLTFRYYAMGWYRQAPGKERELVATITRAGRTNYADSVKGRFTISRDNAKNTVYLQMNSLKPEDTAVYYCATKRVLTGYDSWGQGTQVTVSS	high polyreactivity
QVQLVESGGGLVQAGGSLRLSCADSGLTFEGYAMGWNRQAPGKERELVAAITWSGGNTYYADSVKGRFTSSRDNAKKTVYLQMNSLKPEDTAVYYCAAQRPSRDSRPFEYWGQGTQVTVSS	low polyreactivity
QVQLVESGGGLVQAGGSLRLSCAASGSTFYYYAMGWYRQAPGKERELVATITSGASTNYADSVKGRFTISRDNAKNTVYLQMNSLKPEDTAVYYSNAGSLTSYLPWSSYDYWGQGTQVTVSS	low polyreactivity
QVQLVESGGGLVQAGGSLRLSCAASGRIFGTNAMGWYRQAPGKERELVADITSGGSTNYADSVKGRFTISRDNAKNTVYLQMNSLKPEDTAVYDCAADVIGDLRWYRDEYWGQGTQVTVSS	low polyreactivity
QVQLVESGGGLVQAGGSLRLSCAASGSIFPPNAMAWYRQAPGKEREFVAAITESGGSTRYADSVKGRFTISRDNAKNTVYLQMNSLKPEDTAVYYCAARSYRYSTHGTYRYYYWGQGTQVTVSS	high polyreactivity
QVQLVESGGGLVQAGGSLRLSCAASGSTSGFYAMGWYRQAPGKERELVAAIDVSGGSTYYADSVKGRFTISRDNAKNTVYLQIHSLKPEDTAVYYCAAYRRNVWSARYGYWGQGTQVTVSS	high polyreactivity
QVQLVESGGGLVQAGGSLRLSCAASGLILYYYAMGWYRQAPGKERELVAAISRRDGDTYYADSVKGRFTISRDNAKNTVYLQMNSLKPEDTAVYYCAAERRWSWVVRDDYWGQGTQVTVSS	low polyreactivity
